According to the supplement of paper PMC7125110:
± gives the standard error. For some of these results: Variants at the floor of the assay were thinned out.

B1: glmS ribozyme (parent)
chain: AUAAAAGCGCCAGAACUACAGAAAUGUAGUUGACGAGGAGGAGGUUUAUCGAAUUUUCGGCGGAUGCCUCCAAA

What was measured:
Details in all cases: with glucosamine-6-phosphate
glucosamine-6-phosphate [1] = variants of: B1; assay: kcat; higher = faster cleavage; RNA array
Procedure, shortened: (§1)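 Over ~14 h at 37 °C, tiles were imaged as glucosamine-6-phosphate (40 μM to 10 mM) in HEPES/KCl/Mg(OAc)2 buffer flowed across sequenced MiSeq chips. The chips carried barcoded ribozyme variants transcribed in situ by E. coli RNA polymerase and tracked with a hybridised Cy3 probe. After normalisation to baseline and to non-cleaving reference variants, one- or two-exponential decay fits of per-tile medians gave kobs. kcat and KM followed from weighted Michaelis–Menten fits across concentrations.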

glucosamine-6-phosphate [2] = variants of: B1; assay: KM; higher = weaker cofactor use; RNA array
Procedure, shortened: as §1

glucosamine-6-phosphate [3] = variants of: B1; assay: self-cleavage kobs at 2500 uM GlcN6P; higher = faster cleavage; RNA array
Procedure, shortened: as §1

glucosamine-6-phosphate [4] = variants of: B1; assay: self-cleavage kobs at 10000 uM GlcN6P; higher = faster cleavage; RNA array
Procedure, shortened: as §1

glucosamine-6-phosphate [5] = variants of: B1; assay: self-cleavage kobs at 640 uM GlcN6P; higher = faster cleavage; RNA array
Procedure, shortened: as §1

glucosamine-6-phosphate [6] = variants of: B1; assay: self-cleavage kobs at 40 uM GlcN6P; higher = faster cleavage; RNA array
Procedure, shortened: as §1

glucosamine-6-phosphate [7] = variants of: B1; assay: self-cleavage kobs at 160 uM GlcN6P; higher = faster cleavage; RNA array
Procedure, shortened: as §1

Variant | kcat (glucosamine-6-phosphate [1]) [s⁻¹] | KM (glucosamine-6-phosphate [2]) [µM] | self-cleavage kobs at 2500 uM GlcN6P (glucosamine-6-phosphate [3]) [s⁻¹] | self-cleavage kobs at 10000 uM GlcN6P (glucosamine-6-phosphate [4]) [s⁻¹] | self-cleavage kobs at 640 uM GlcN6P (glucosamine-6-phosphate [5]) [s⁻¹] | self-cleavage kobs at 40 uM GlcN6P (glucosamine-6-phosphate [6]) [s⁻¹] | self-cleavage kobs at 160 uM GlcN6P (glucosamine-6-phosphate [7]) [s⁻¹]
AUAAAAGCGCCAGAUCUACAGAAAUGUAGUUGACGAGGAGGAGGUUUAUCGAAUUUUUGGCGGAUGCCUCCAAA | 8.55e-05 ± 9.3e-06 | 3320 ± 980 | 3.46e-05 ± 8.3e-06 | 6.48e-05 ± 8.4e-06 |  |  | 
AUAAAAGCGCCAGACCUACAGAAAUGUAGUUGACGAGGAGGAGGUUUAUCGAAUUUUGGGCGGAUGCCUCCAAA | 0.000128 ± 2.1e-05 |  | 5.08e-05 ± 1.8e-05 | 0.000111 ± 1.4e-05 | 4.09e-05 ± 1.2e-05 |  | 
AUAAAAGCGCCAGAACUACAGAAAUGUAGUUGACGAGGAGGAGGUUUUUCGAAUUUUCGGCGGACGCCUCCAAA | 4.55e-05 ± 6.5e-06 |  | 4.16e-05 ± 1.4e-05 | 3.92e-05 ± 1.5e-05 |  | < 1e-05 | 
AUAAAAGCGCCAGAAUUACAGAAAUGUAGUUGACGAGGAGGAGGUUUAUCGAACUUUCGGCGGAUGCCCCCAAA | 0.0043 ± 0.0021 |  | 0.00258 ± 0.00059 | 0.00361 ± 0.0013 | 0.000965 ± 0.00017 | 0.000216 ± 7.7e-05 | 
AUAAAAGCGCCAGAACUACAGAAAUGUAGUUGACGAGGAGGAGGUUUAUCGAAUCUUCGACGGAUGCCUCCAAA | 1.48e-05 ± 1.8e-06 |  |  |  |  | < 1e-05 | 
AUAAAAGCGCAAGAACUACAGAAAUGUAGUUGACGAGGAGGAGGUUUAUCGAAUUUUCGGCGGAUGCCUCGAAA | 5.67e-05 ± 6.5e-06 |  | 4.99e-05 ± 1.2e-05 | 5.95e-05 ± 1.3e-05 |  |  | 
AUAAAAGCGCCAGAACUACAGAAAUGUAGUUGACGAUGAGGAGGUUUAUCGAGUUUUCGGCGGAUGCCUCCAAA | 1.16e-05 ± 3.4e-06 |  |  |  |  |  | 
AUAAAAGCGCCAGAAUUACAGAAAUGUAGUUGACGAGGAGGAGGUUGAUCGUAUUUUCGGCGGAUGCCUCCAAA | 0.000133 ± 8.3e-06 | 1230 ± 200 | 8.23e-05 ± 2.3e-05 | 0.000122 ± 2.5e-05 | 4.73e-05 ± 1.3e-05 |  | 
AUAAAAGCGCCAGAACUACAGAAAUGUAGUUGACGAGGGGGAGGUUUAUCGAAUUUUCGGCGGAUGUCUCCAAA | 0.00597 ± 0.0013 | 979 ± 370 | 0.00338 ± 0.0007 | 0.00666 ± 0.00089 | 0.00216 ± 0.00033 | 0.00033 ± 5.8e-05 | 0.000762 ± 0.00016
AUAAAAGCGCCAGCACUACAGAAAUGUAUUUGACGAUAAGGAGGUUUAUCGAAUUUUCGGCGGAUGCCUACAAA | 5.57e-05 ± 2e-05 |  | 6.04e-05 ± 2.4e-05 |  |  |  | 
